Consider two molecules from article PMC3929611 (2014).

The target of one experiment is T1, FITC-labeled β2 peptide (rat, UniProt P63138).
T1 peptide: {FITC′}-MWRVRKRGYFGIWSFPLII
As to the kind of experiment: FP.

For the next experiment, the target named is T2, FITC-labeled α1 peptide (rat).
T2 peptide: {FITC′}-QPSQDELKDNTTVFT
As to the kind of experiment: FP.

Primed or numbered codes have the meaning given here. Ends that are not written are not given here. FITC′ = fluorescein isothiocyanate

B1: G8 scFv (anti-β2 subunit scFv), soluble protein (scFv, V domains shown)
VH: EVQLVQSGAEVKKPGATVKISCKVSGYTFTDYYMHWVQQAPGKGLEWMGLVDPEDGETIYAEKFQGRVTITADTSTDTAYMELSSLRSEDTAVYYCATTPPHDYYDSSGLDYWGQGTLVTVSS
VL: DIQMTQSPSSVSASVGDRVTITCRASQGINRWLAWYQQKPGKAPKLLIYAASNLQSGVPSRFSGSGSGTDFSLTISSLQPEDFATYYCQQSYSPPSTFGGGTKLEIK
In general, Kd refers to the concentration at which binding is half-saturated. Lower therefore signals higher affinity. On to B1, for which binding with FITC-labeled β2 peptide was put at a Kd of 820 nM.

B2: A10 scFv (anti-α1 subunit-specific scFv), soluble protein (scFv, V domains shown)
VH: EVQLVQSGAEVKKPGASVKVSCKASGYTFTSYYMHWVRQAPGQGLEWMGIINPSGGSTSYAQKFQGRVTMTRDTSTSTVYMELSSLRSEDTAVYYCARDGWGGSSFLDYWGQGTLVTVSS
VL: SYELTQPPSVSVSPGQTARITCSGDALPKKYAYWYQQKSGQAPVLVIYEDSKRPSGIPERFSGSSSGTMATLTISGAQVEDEADYYCYSKDNTGYQMVFGGGTKLTVL
Regarding B2, binding with FITC-labeled α1 peptide was characterised by a dissociation constant (Kd) of 3000 nM.
